Assays:
[1] = target: T1, SdpB(26-536) (Caulobacter crescentus NA1000, UniProt A0A0H3C791 26-536, biotinylated using NHS-PEG4-Biotin (for BLI)); assay: BLI
T1 chain: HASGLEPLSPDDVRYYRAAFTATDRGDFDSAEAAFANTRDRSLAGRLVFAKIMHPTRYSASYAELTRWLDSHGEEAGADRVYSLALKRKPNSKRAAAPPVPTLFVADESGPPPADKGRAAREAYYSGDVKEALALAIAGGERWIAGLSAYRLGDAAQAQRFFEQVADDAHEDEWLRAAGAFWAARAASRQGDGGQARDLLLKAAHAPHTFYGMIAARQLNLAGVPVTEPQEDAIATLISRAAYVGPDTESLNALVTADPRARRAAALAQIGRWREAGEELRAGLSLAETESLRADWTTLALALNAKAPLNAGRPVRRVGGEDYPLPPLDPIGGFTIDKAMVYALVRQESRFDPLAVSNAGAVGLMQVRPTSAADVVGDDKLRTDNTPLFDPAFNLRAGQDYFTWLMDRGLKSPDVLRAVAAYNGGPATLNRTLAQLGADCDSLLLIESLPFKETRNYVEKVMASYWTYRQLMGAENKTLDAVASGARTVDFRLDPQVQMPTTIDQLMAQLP

[2] = target: T2, CrbA(371-451) (Caulobacter crescentus NA1000, UniProt A0A0H3C8K5 371-451, biotinylated using NHS-PEG4-Biotin (for BLI)); assay: BLI
T2 chain: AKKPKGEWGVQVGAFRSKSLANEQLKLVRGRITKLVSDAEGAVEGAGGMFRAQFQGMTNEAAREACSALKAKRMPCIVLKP

[3] = target: T3, His6-SdpA(21-699) (Caulobacter crescentus NA1000, UniProt A0A0H3C7P1 21-699, biotinylated using NHS-PEG4-Biotin (for BLI)); assay: BLI
T3 chain: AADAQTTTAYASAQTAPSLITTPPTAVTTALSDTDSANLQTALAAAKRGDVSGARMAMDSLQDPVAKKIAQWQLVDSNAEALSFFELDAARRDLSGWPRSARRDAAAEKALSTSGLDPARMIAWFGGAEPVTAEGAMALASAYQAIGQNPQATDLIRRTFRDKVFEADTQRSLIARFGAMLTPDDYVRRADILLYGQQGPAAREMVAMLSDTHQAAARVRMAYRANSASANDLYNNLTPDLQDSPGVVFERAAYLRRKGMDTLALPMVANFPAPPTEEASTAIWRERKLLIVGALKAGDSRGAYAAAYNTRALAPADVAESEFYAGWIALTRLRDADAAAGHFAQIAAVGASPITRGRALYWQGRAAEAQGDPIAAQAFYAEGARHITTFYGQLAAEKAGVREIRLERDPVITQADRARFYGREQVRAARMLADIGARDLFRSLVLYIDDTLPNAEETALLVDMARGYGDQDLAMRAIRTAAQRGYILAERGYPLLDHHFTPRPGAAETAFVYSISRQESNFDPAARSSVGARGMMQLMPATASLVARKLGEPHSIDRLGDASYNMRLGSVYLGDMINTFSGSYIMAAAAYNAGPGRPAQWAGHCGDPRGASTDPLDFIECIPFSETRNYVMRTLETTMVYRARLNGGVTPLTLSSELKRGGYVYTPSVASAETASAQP

[4] = target: T4, FtsN(51-266) (Caulobacter crescentus NA1000, UniProt B8GX61 51-266, biotinylated using NHS-PEG4-Biotin (for BLI)); assay: BLI
T4 chain: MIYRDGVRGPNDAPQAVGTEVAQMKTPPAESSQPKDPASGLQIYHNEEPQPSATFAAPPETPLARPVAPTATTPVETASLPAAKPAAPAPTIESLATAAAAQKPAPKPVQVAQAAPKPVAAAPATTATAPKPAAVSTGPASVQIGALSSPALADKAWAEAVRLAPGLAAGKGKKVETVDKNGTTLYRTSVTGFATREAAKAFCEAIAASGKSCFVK

[5] = target: T5, AmiC(35-395) (Caulobacter crescentus NA1000, UniProt A0A0H3C9I3 35-395, biotinylated using NHS-PEG4-Biotin (for BLI)); assay: BLI
T5 chain: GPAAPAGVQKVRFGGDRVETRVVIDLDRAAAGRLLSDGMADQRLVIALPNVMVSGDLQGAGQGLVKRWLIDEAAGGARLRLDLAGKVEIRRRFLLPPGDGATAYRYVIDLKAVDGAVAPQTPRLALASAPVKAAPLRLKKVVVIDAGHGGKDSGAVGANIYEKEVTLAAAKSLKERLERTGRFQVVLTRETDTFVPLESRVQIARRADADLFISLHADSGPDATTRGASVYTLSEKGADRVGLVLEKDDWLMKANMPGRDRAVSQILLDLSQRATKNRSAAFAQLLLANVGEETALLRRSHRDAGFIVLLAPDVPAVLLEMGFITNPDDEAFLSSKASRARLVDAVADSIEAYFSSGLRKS

[6] = target: SdpA, SdpB, AmiC, the SPOR domain of CrbA and the periplasmic region of FtsN; assay: BLI; biotinylated target immobilised on streptavidin (SAX) sensors, DipM as analyte at several concentrations; equilibrium shifts fitted to a one-site model; 50 mM HEPES/NaOH pH 7.2, 50 mM NaCl, 5 mM MgCl2, 0.1 mM EDTA, 10% glycerol, 10 µM BSA, 0.01% Triton X-100

- Kd [1]: 3.5 µM
- Kd [2]: 46.3 µM
- Kd [3]: 12.1 µM
- Kd [4]: 20 µM
- Kd [5]: 18.3 µM
- Kd [6]: 3 to 46 µM
B1: MAS-DipM(26-609)-His6 (natural protein)
chain: MASGQSGQRFTPNFPITQPAAPPPGETIQAQPGEAESLPRPTPIPVQSAPPIAQAELPPPAPVSTPAPAPQPVLRATPPRTVVTTTVTGPVVEVAGKPQVRVVESGDALDAIARGMGSTRAELVKLNDLEPPYRLKLGQKIKGPATTAKAYVVQTGDTMFAIAKRFNVTAAALAEENDLKSGAAIKKGQKLLLPDGYKDKGPIKTTQVIPGTPATMVAEAEPAPATTRPATPAATPSRPVRQPVSEETSEPATTSTTTLSVTGSVVTVAGPRQVHTVKSGDTLTAIARKFDMSVSELAEANKLDTEKPLKLGAKIKGPATTQKAYSVQTGDTLGEIAKRFNVSVKALAAENNLRATASLKKGQKIALPDGFRDKGPIRTTTTTRPATPPANTYARVDSSAAAASTPSSPVPYTPSGAAPRPSAPVAAQPITPPPSSGRTIIETAAAPTEAEIIASGKGKFAWPLRGDIISSFGVKGTGQRNDGLNIRAPQGTPVLSSADGEIAYAGNQVPTFGNLVLVKHADGWVTAYAHLSSTNVKMRQQVKQGEQLGTVGATGGVNEPQLHFEMRYAPTVKDKAKPVDPALVLPR
